# According to the RNAGym collection of RNA variant scans (doi:10.1093/nar/gkz1192):
# B1: CPEB3 Ribozyme (parent)
# chain: UAACAGGGGGCCACAGCAGAAGCGUUCACGUCGCAGCCCCUGUCAGAUUCUGGUGAAUCUGCGAAUUCUGCUGUAUAUCUC
# Variants of: B1
# Experiment: self-cleavage, relative activity (ratio to wild type); higher = more cleavage; in vitro, sequencing
# Summary of the method: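 CPEB3 self-cleaving ribozyme mutant libraries were made by rounds of error-prone PCR, barcoded, and transcribed in vitro with T7 RNA polymerase for 5 hours at 37°C. Cleavage occurred during transcription and a 15 min DNase I step before EDTA stop. RNAs were reverse transcribed with template switching and Illumina-sequenced, with DNA sequencing mapping barcodes to variants. Relative activity is the variant's cleaved/total read fraction divided by wild type's (minimum 5 reads), averaged across three batches.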
row,Variant,self-cleavage
1,UAACAGGGGGCCACAGCAGAAGCGUUCACGUCGCAGCCCCUGUCAAAUUCUGGUGAAUCCGCGAAUUCUGCUGUAUAUCUC,0.14
2,UAACAGGGGGCCACAGCAGAAGCGUUCACGUCGCAGCCCCUGUCAAUUUCUGGUGAAUCUGCGAAUUCUGCUGUAUAUCUC,0.24
3,UAACAGGGGGCCACAGCAGAAGCGUUCACGUCGCAGCCCCUGUCAACUUCUGGUGAAUCUGCGAAUUCUGCUGUAUAUCUC,0.17
4,UAACAGGGGGCCACAGCAGAAGCGUUCACGUCGCAGCCCCUGUCAAAUUCUGGUGAAUCUGCGAAUUAUGCUGUAUAUCUC,0.15
5,UAACAGGGGGCCACAGCAGAAGCGUUCACGUCGCAGCCCCUGUCAAACUCUGGUGAAUCUGCGAAUUCUGCUGUAUAUCUC,0.26
6,UAACAGGGGGCCACAGCAGAAGCGUUCACGUCGCAGCCCCUGUCACAUACUGGUGAAUCUGCGAAUUCUGCUGUAUAUCUC,0.04
7,UAACAGGGGGCCACAGCAGAAGCGUUCACGUCGCAGCCCCUGUCUGAUUCUGGUGAAUCUGCGAAUUCUGCGGUAUAUCUC,0.61
8,UAACAGGGGGCCACAGCAGAAGCGUUCACGUCGCAGCCCCUGUCUGAUUCUGGUGAAUCUGCGAAUUCUGCAGUAUAUCUC,0.39
9,UAACAGGGGGCCACAGCAGAAGCGUUCACGUCGCAGCCCCUGUCUGAUUCUGGUGAAUCUGCGAAUUCUGCCGUAUAUCUC,0.5
10,UAACAGGGGGCCACAGCAGAAGCGUUCACGUCGCAGCCCCUGUCACAUUCUGGAGAAUCUGCGAAUUCUGCUGUAUAUCUC,0.15
11,UAACAGGGGGCCACAGCAGAAGCGUUCACGUCGCAGCCCCUGUCACAUUCUGGUGUAUCUGCGAAUUCUGCUGUAUAUCUC,0.13
12,UAACAGGGGGCCACAGCAGAAGCGUUCACGUCGCAGCCCCUGUCAAAUUCUGGUGAAUCUGCGAAUUCUGCCGUAUAUCUC,0.32
13,UAACAGGGGGCCACAGCAGAAGCGUUCACGUCGCAGCCCCUGUCAAAUUCUGGUGAAUCUGCGAAUUCUGCUGUAUUUCUC,0.48
14,UAACAGGGGGCCACAGCAGAAGCGUUCACGUCGCAGCCCCUGUCAAAUUCUGGUGAAUCUGCGAAUUCUGCUGUAUGUCUC,0.27
15,UAACAGGGGGCCACAGCAGAAGCGUUCACGUCGCAGCCCCUGUCAAAUUCUGGUGAACCUGCGAAUUCUGCUGUAUAUCUC,0.38
16,UAACAGGGGGCCACAGCAGAAGCGUUCACGUCGCAGCCCCUGUCAAAUUCUGGUGAAUCUGCGAGUUCUGCUGUAUAUCUC,0.14
17,UAACAGGGGGCCACAGCAGAAGCGUUCACGUCGCAGCCCCUGUCAAAUUCUGGUGAAUCUGCGAUUUCUGCUGUAUAUCUC,0.43

row,Variant,self-cleavage
1,UAACAGGGGGCCACAGCAGAAGCGUUCACGUCGCAGCCCCUGUCACAUUCUGGUGAAUCUGCGAAUUCUGCUGUAAAUCUC,0.22
2,UAACAGGGGGCCACAGCAGAAGCGUUCACGUCGCAGCCCCUGUCACAUUCUGGUGAAUCUGCGAAUUCUGCUGUACAUCUC,0.5
3,UAACAGGGGGCCACAGCAGAAGCGUUCACGUCGCAGCCCCUGUCAAAUUCUGGUGAAUCUGCGAAUUCUGCUGUAUAUCCC,0.37
4,UAACAGGGGGCCACAGCAGAAGCGUUCACGUCGCAGCCCCUGUCUGAUUCUGGUGAAUCUGCGAAUUCUGCUGUAUAUCCC,0.62
5,UAACAGGGGGCCACAGCAGAAGCGUUCACGUCGCAGCCCCUGUCAAAUUUUGGUGAAUCUGCGAAUUCUGCUGUAUAUCUC,0.17
6,UAACAGGGGGCCACAGCAGAAGCGUUCACGUCGCAGCCCCUGUCAAAUUGUGGUGAAUCUGCGAAUUCUGCUGUAUAUCUC,0.21
7,UAACAGGGGGCCACAGCAGAAGCGUUCACGUCGCAGCCCCUGUCAAAUUCUGGUGAGUCUGCGAAUUCUGCUGUAUAUCUC,0.16
8,UAACAGGGGGCCACAGCAGAAGCGUUCACGUCGCAGCCCCUGUCAAAUUCUGGUGAAUCUGCGAAUUCCGCUGUAUAUCUC,0.07
9,UAACAGGGGGCCACAGCAGAAGCGUUCACGUCGCAGCCCCUGUCAAAUUCUGGUGAAUCUGCGAAUUCUGCUAUAUAUCUC,0.99
10,UAACAGGGGGCCACAGCAGAAGCGUUCACGUCGCAGCCCCUGUCUGAUUCUGGUGAAUCUGCGAAAUCUGCUGUAUAUCUC,0.31
11,UAACAGGGGGCCACAGCAGAAGCGUUCACGUCGCAGCCCCUGUCUGAUUCUGGUGAAUCUGCGAAGUCUGCUGUAUAUCUC,0.13
12,UAACAGGGGGCCACAGCAGAAGCGUUCACGUCGCAGCCCCUGUCUGAUUCUGGUGAAUCUGCGAACUCUGCUGUAUAUCUC,0.27
13,UAACAGGGGGCCACAGCAGAAGCGUUCACGUCGCAGCCCCUGUCACAUUCUGGUGAAUCUGCGAAUUCUGCUGUAUAUCUC,0.32
14,UAACAGGGGGCCACAGCAGAAGCGUUCACGUCGCAGCCCCUGUCAAAUUCUGGUGAAUCUGCGAAUUCUGCUGUAUAUCUC,0.33
15,UAACAGGGGGCCACAGCAGAAGCGUUCACGUCGCAGCCCCUGUCAAAUUCUGGUGAAUCUGCCAAUUCUGCUGUAUAUCUC,0.62
16,UAACAGGGGGCCACAGCAGAAGCGUUCACGUCGCAGCCCCUGUCACAUUCUGGUGAAUCUGCGUAUUCUGCUGUAUAUCUC,0.11
17,UAACAGGGGGCCACAGCAGAAGCGUUCACGUCGCAGCCCCUGUCACAUUCAGGUGAAUCUGCGAAUUCUGCUGUAUAUCUC,0.25
